Assay results taken from the DeepSol protein solubility set.

Assay: soluble on expression in E. coli; label from the status in PepcDB or PDB records

Row | Sequence | soluble on expression in E. coli
1 | MSPDSCPLVKNILLLDSEGKRVAVKYYSDDWPTNAAKLSFEKYVFSKTSKTNARTEAEITLLDSNIIVYKFAQDLHFFVTGGENENELILASVLQGFFDAVALLLRSNVEKMEALENLDLIFLCLDEMVDQGVVLETDPNVIAGKVAMQSTEASGSLSEQTLTQALATAREHLARSLLT | soluble
2 | GPGSMNPATKDVASAEEESPVVCTAKQYIFDLHSYAWKESDCLIRIPRPHKGMGHGGMRVCYAVEDVDEEGAGTPMVAKMFRRNISNVVEKDYFNEGAAQCMCEEFANNFNRIHLTNIRKPNISFLQCYVVRIPRDSIPAASQRKRTGFFSYKTQDTGEVMFVMEPMLSGKFTKYNSNYGETYREDKKAALTSSEARRRTEIFEAAETFSHFTLVESGGSMLVCDLQGVNDFFTDPQIHTEDGKGLGMGNMGQEGIDKWIEKHECNDICRALGLQPLLGAVPSSTACAREENMYLGLRAQLQSQNPVRLRDLVPLTKPLEEMTEAERIEYALKVSRLTD | soluble
3 | GPGSPSEENEGRQFIVCYYLADDTVSVFELQVPNSGHVGGKIFARRAVENLQDPTLLKVGNTIRLDGVDYLLKEMDERTKRYLEMGMPNMDESYFRTQEILGIAASYLQQQFSRITDAFRHYASSSTQGLTRENVREMLSDAGVHATDAELTNVMERADGDKDGWVSLADFTEQFMQQLFISNFKPRESQKRWGDTRNGVVVQRG | soluble
4 | MSEDLMDLSPEEGIERFLRHREPSVRESTMRNAKTRLRFFNEWCEERDIENLNNLTGRDLADFVAWRRGDIAALTLQKQLSTIREALRYWADIEGVDDGLAEKVHAPELEHHHHHH | not soluble
5 | MNVLKLTNGREISYLNEVEIRMGIDELNGEERYKKELENMETSDITVHKYEGGFKIWECTVDLCDYIEENQTLFAGKSVLELGCGAALPSILTAVHGAKEVFAQDFNASVIEFFTLPNFEENPHSAVVQGEAMGWEEVPNRLSGRKFDFILSSETIYNEDDYQALHDAVAATIKDDGVAWFAAKFFYFGVGGSVPAFCEFINQRGILQASEAKVIAASVPRRIVEIRKK | not soluble
6 | SAESENVSNNISLYSEETVILDVKGKNKTDVIDEMIGILDKSGVLLDKKKFKEEILKREEISSTGFGMGIAIPHAKTDAVKVPRVAVGVSKEGFDFESEDGSLAHIIFMIAATDNGDNLHLKTLSQLSSKLMNEEFLNELLNSKTSREIVSKLNNEEIKSV | not soluble
7 | MKKETKPRVVVIGGGTGLPVILKGLKKKDIHLTAIVTVADDGGSSGKIREQMDVLPPGDIRNVMLALSNVDPRVVDLFQYRFAVDGDLSGHVIGNLILTALSQLNDSYVDAINVLATVLKIRGKVIPATDQPLILNAEMEDGSIVHGESLIPLQGKHINRVYIEPENVKPYPTAVEAVKEADLIVIGPGSLYTSILPNLLLTELADEITASKAPKVYITNILTQIGETDFFSDADHIKVIHEHVGKSFIDKTLINTTTVPKELLFPEDVAQVEHNAKGMEELGVEAIYQDFLSTEDGLVRHAAEKVADALLAMLPNQTNEKELEHHHHHH | soluble
8 | GPGSMIFGSEPPLYLKPVGRRGLRRHEADVLQHYPGYSHPVVQLRGSEGYIGDSHRLHPRLTAAEELRHERELGAERRQRVVEVRRRRHCEREANLAQRREDEFQREQRHKAQLAGLCIRNEPGDGRDTITQQYRTEDARRHYEYKHELEKHRYFARQQRLREKTHPHGYNILTGEALPSTVVPPKPSIPSDTQLFAVQNGD | not soluble
9 | MRFFSLIKLPVVLVLAGLLSACGFHLRGEYSVPEELHTMSFSSYDEYSKLTRYVRSQLQLNKVDLVQPSSSVPNLHLIKATMDERTLSLYQNSRAAEKELTYVVQYRVTIPGFGSKNFTTTVNRNYLDNPLTALAKSVERDVIEDEMRQQAAKQMMRQLGRIRAEYEAGQIAAPTEKTNSLEHHHHHH | not soluble
10 | MNTQSPPSPHDPHGAAALPFRLWTAEERRASLDTALREWRDGEDVWVYGYGSLIWRPDFDFVERRLATLHGHHRALCLWSRVNRGTPECPGLVFGLDRGGSCRGVVYRLAGRQVPDYFPALWDREMSTGAYLPRWLRCATEHGPVNALVFIMNRANPAYIRALPEPELLAIVRRASGRYGPCTEYVVQTAQALRQAGIRDARLEQIARQLEADVHPLGVLEHHHHHH | not soluble
11 | MGSDKIHHHHHHMKKQWNEFVRDRMSEKNLKQEDIAEAIERTQGAVGHWLTGRRSPNFMEVAKMLNATGTDQVILNSDGTIEDIEFIGIPKKGLVKVIGEATMGTDGSVDIEEIHVGYIDIFTTDPKAFCLRVKGSSMEPRIHSGEFVLVEPQSPFSNGDDVFIRTKDGKNMIKILDYQKDGEYRFSSINNDHKPFNLAIDEVELVYYVAGILKKSRFVDLEP | not soluble
12 | MAPEAQVSVQPNFQQDKFLGRWFSAGLASNSSWLREKKAALSMCKSVVAPATDGGLNLTSTFLRKNQCETRTMLLQPAGSLGSYSYRSPHWGSTYSVSVVETDYDQYALLYSQGSKGPGEDFRMATLYSRTQTPRAELKEKFTAFCKAQGFTEDTIVFLPQTDKCMTEQAHHHHHH | soluble
13 | HYNTEILKSIDNEWRKTQCMPREVCIDVGKEFGVATNTFFKPPCVSVYRCGGCCNSEGLQCMNTSTSYLSKTLFEITVPLSQGPKPVTISFANHTSCRCMSKLDVYRQVHSIIRR | soluble
14 | MGKEKVHINIVVIGHVDSGKSTTTGHLIYKCGGIDKRTIEKFEKEAQEMGKGSFKYAWVLDKLKAERERGITIDIALWKFETAKYYITIIDAPGHRDFIKNMITGTSQADCAVLVVACNKMDSTEPPFSEARFTEITNEVSGFIKKIGYNPKAVPFVPISGFNGDNMLEVSSNMPWFKGWAVERKEGNASGKTLLEALDSIIPPQRPTDRPLRLPLQDVYKIGGIGTVPVGRVETGIIKPGMVVTFAPQNVTTEVKSVEMHHESLPEAVPGDNVGFNVKNVSVKDIRRGSVCSDSKQDPAKEARTFHAQVIIMNHPGQISNGYTPVLDCHTAHIACKFNELKEKVDRRTGKKVEDFPKFLKSGDAGIVELIPTKPLCVESFTDYAPLGRFAVRDMRQTVAVGVIKSVEKSDGSSGKVTKSAQKAAPKKK | not soluble
15 | MCSSETIVKLNVGGSVFETWKSTLTKQDGFFKTLVETNIPVKKDTSDCYFIDRSPKYFETVLNYMRSGVTVLPDSEKELQELKKEAEFYLLEQLVDLCEPINNQIRTYRSSHELLQIIASTKKPVVVINYITHNNDIIYIPEGFRFDEFVKKNSSVVEIYFQPMDNREPLPKDLRRHRGMKYYPEPVWSYRIYNSTHSGCVDLTAMDDLQKKIDSILNGE | not soluble
16 | MSLKTFTDRWRQLEWDDIRLRINGKTAADVERALNAAHLSRDDLMALLSPAAADYLEPIAQRAQRLTRQRFGNTVSFYVPLYLSNLCANDCTYCGFSMSNRIKRKTLDEVDIQRECDAIRKLGFEHLLLVTGEHQAKVGMDYFRRHLPTIRRQFSSLQMEVQPLSQENYAELKTLGIDGVMVYQETYHEAIYAQHHLKGKKQDFFWRLETPDRLGRAGIDKIGLGALIGLSDNWRVDCYMVAEHLLWMQKHYWQSRYSVSFPRLRPCTGGVEPASVMDEKQLVQTICAFRLLAPEIELSLSTRESPWFRDHVIPLAINNVSAFSKTQPGGYADDHPELEQFSPHDARRPETVASALSAQGLQPVWKDWDSWLGRASQTREGHHHHHH | not soluble
17 | LRYNLWFGVYDGKEIKLSENFEESFLKAENPSPLPFNVSEVGAKALGKDYYRILRKTALAVSEKMVEKELRREDRYVVALVKALEEIDESINMLNEKLEDIRAVKESEITEKFEKKIRELRELRRDVEREIEEVMEKIAPNMTELVGAKVAAKLLERAGSMERLVRLPASKIQVIGAEKSLYKAFARMKKGKKAKIPKHGIIFLHPFIRTLPKAKRGKMARFLAAKLAIAAKIDYFRGEIDESLYESIRRRYEELRRK | soluble
18 | MHAITNSGWVEVITGSMFSGKTEELLRRLRRAEIAGQDVAAVTPAVDDRYGEATLGSHAGRSWAATVVEPTAEGVASIPTLLNGEQVVAIDEANFFPAELVDVCQELAADGRRVVLSGTDQTFRGEPFEPVPQLMAIAEYVDKMRAICMQCGEPATRNQRLIEGEPAHYDDPTVMVGAEETYEARCRNCHVVRRELEHHHHHH | not soluble
19 | MAIPKLQSYALPTALDIPTNKVNWAFEPERAALLIHDMQDYFVSFWGRNCPMMDQVIANIAALRQYCKEHHIPVYYTAQPKEQSDEDRALLNDMWGPGLTRSPEQQKVVEALTPDEADTVLVKWRYSAFHRSPLEQMLKDTGRNQLIITGVYAHIGCMTTATDAFMRDIKPFMVADALADFSREEHLMALNYVAGRSGRVVMTESLLPTPVPASKAALRALILPLLDETDEPLDDENLIDYGLDSVRMMGLAARWRKVHGDIDFVMLAKNPTIDAWWALLSRGVE | not soluble
20 | MGQVEVIDRRQSVFGDDIQLQKRSSSYEIISNGVFLMSTENGRSEREMVTLGAQHMKNAVHSVLIGGLGVGITADEAVHLNDHVQVHVVEIEPSVVEWQYRYLYPFSNQALEHERTAIIISDIQQWLRTNERTYDLICLDTDNGPDWMVHKQNASLYGKIGLELVRERVRVGGAVSFWSASASESFLHELETLFDRVYEHAVSISHTLPPDYVYVACRDLEHHHHHH | soluble
21 | MRVLVTGGAGFIGSHIVEDLLARGLEVAVLDNLATGKRENVPKGVPFFRVDLRDKEGVERAFREFRPTHVSHQAAQASVKVSVEDPVLDFEVNLLGGLNLLEACRQYGVEKLVFASTGGAIYGEVPEGERAEETWPPRPKSPYAASKAAFEHYLSVYGQSYGLKWVSLRYGNVYGPRQDPHGEAGVVAIFAERVLKGLPVTLYARKTPGDEGCVRDYVYVGDVAEAHALALFSLEGIYNVGTGEGHTTREVLMAVAEAAGKAPEVQPAPPRPGDLERSVLSPLKLMAHGWRPKVGFQEGIRLTVDHFRGAV | soluble
22 | MPPLPEKVQSHRATPIQSSGVSALPLVEYHAPGSDRLAIMISGDGGWRTLDRNLSKELQRRGISVVGWNSLRYFWKLRTPEQLGDDLSRVIADYQRRWGAHQVILIGYSFGADVMPFAYAHLMPTQRNGVDFISLLALGRKADFKARIFGWLGWGEHGTRDVLTALGALDLHRVQCIYGQNDKDAVCPELRERIFDVVMRPGGHHFDGDTVKLADAILQGWQRRIELREPRNADSPR | not soluble
23 | MAHHHHHHMSEARQIQSMIDFIEREAQEKADELNSAAQEEYDVEKMRLVEAEKVKVRANNEQKLKQVDVGRRVARANFSKAQRLRIMEAQSNIVEQLKENIKTKLMAFVKNTDSYKKLLVSILHEALSAVRTDAIVYTCKNDEPIVTGMLSELEQWYLKTVGTRVSIRMGKEYLNAEEALGGVVVKSHDGHIVCNWTLSSRMRNCVNDQLPTIRYYLFNPESSI | not soluble
24 | SDDKAFTKELDQWVEQLNECKQLNENQVRTLCEKAKEILTKESNVQEVRCPVTVCGDVHGQFHDLMELFRIGGKSPDTNYLFMGDYVDRGYYSVETVTLLVALKVRYPERITILRGNHESRQITQVYGFYDECLRKYGNANVWKYFTDLFDYLPLTALVDGQIFCLHGGLSPSIDTLDHISPRGAGYTFGQDISETFNHANGLTLVSRAHQLVMEGYNWCHDRNVVTIFSAPNYCYRCGNQAAIMELDDTLKYSFLQFDPAPRRGEPHVTRRTPDYFL | soluble
